From PMC10581246, “The presence of benzene ring activating CoA ligases for aromatics degradation in the ANaerobic MEthanotrophic (ANME) archaea” (Microbiology Spectrum, 2023) come the findings set out here.

Some test systems named below: O=C(O)Cc1ccc(O)cc1; O=C(O)Cc1ccc(O)c(O)c1; O=C(O)Cc1cccc(O)c1; O=C(O)Cc1ccccc1; O=C(O)c1cccc(O)c1; O=C(O)c1ccccc1; O=C(O)c1ccc(O)cc1.
Common to all, as to test: purified protein
Details in all cases: apparent, 1 mM ATP, 0.5 mM CoA, 10 mM MgCl2, 50 mM Tris-HCl pH 8.0, room temperature

Broadly, the Km is the concentration of substrate that gives half-maximal velocity. One may read the kcat as the maximal rate divided by the concentration of active sites.

As to “PaaKANME (PaaK1ANME) (ANME-2 cluster archaeon)”, the Michaelis-Menten constant (Km) is 49.15 ± 12.54 µM in the data set with O=C(O)Cc1ccc(O)cc1, 42.80 ± 15.03 µM with O=C(O)Cc1ccc(O)c(O)c1, 68.87 ± 9.425 µM in the data set on O=C(O)Cc1cccc(O)c1 and 180.6 ± 32.18 µM in the data set with O=C(O)Cc1ccccc1. In addition, the kcat with O=C(O)Cc1ccc(O)cc1 was 0.148 ± 0.00881 s⁻¹; in the data set on O=C(O)Cc1ccc(O)c(O)c1, 0.0976 ± 0.00722 s⁻¹; in the data set on O=C(O)Cc1cccc(O)c1, 0.254 ± 0.00895 s⁻¹; with O=C(O)Cc1ccccc1 it was 0.153 ± 0.00755 s⁻¹.

With BadAANME (ANME-2 cluster archaeon), the Km with O=C(O)c1cccc(O)c1 was determined as 76.97 ± 14.69 µM; in the data set with O=C(O)c1ccccc1 it was 12.98 ± 1.563 µM; in the data set with O=C(O)c1ccc(O)cc1 it was 55.08 ± 6.910 µM. Moreover, the kcat worked out at 0.2197 ± 0.01127 s⁻¹ with O=C(O)c1cccc(O)c1, 0.1127 ± 0.002522 s⁻¹ in the data set with O=C(O)c1ccccc1 and 0.1086 ± 0.02963 s⁻¹ with O=C(O)c1ccc(O)cc1.
